Patent publication US20180155451A1 (published 2018)

T1: FcγRIIa H (human, UniProt P12318 34-217)
T1 construct: extracellular domain; also called FcgRIIa H type; 2aH; not shown: His tag at the C terminus
T1 sequence (looked up): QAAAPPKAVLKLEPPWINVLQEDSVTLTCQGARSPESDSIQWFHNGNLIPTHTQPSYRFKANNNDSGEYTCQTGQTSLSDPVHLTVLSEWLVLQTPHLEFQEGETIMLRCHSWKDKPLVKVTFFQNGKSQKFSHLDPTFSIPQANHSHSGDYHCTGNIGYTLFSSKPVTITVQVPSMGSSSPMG


Molecular target: T1, FcγRIIa H
Assay: SPR Biacore, relative binding

Row | Binder | He/Con_2aH
1 | GpH7-A5/GpH7-B3 variant H268_10E/GpL16-k0 (antibody, human IgG1, kappa, also called He Ab H268_10E) heavy 1: not shown heavy 2: not shown light: DIVMTQSPLSLPVTPGEPASISCQASESLVHSNRNTYLHWYLQKPGQSPQLLIYKVSNRFSGVPDRFSGSGSGTDFTLKISRVEAEDVGVYYCSQNTHVPPTFGQGTKVEIERTVAAPSVFIFPPSDEQLKSGTASVVCLLNNFYPREAKVQWKVDNALQSGNSQESVTEQDSKDSTYSLSSTLTLSKADYEKHKVYACEVTHQGLSSPVTKSFNRGEC | 124 % of GpH7-A5/GpH7-B3/GpL16-k0 (=100)
2 | GpH7-A5/GpH7-B3 variant K326_09D/GpL16-k0 (antibody, human IgG1, kappa, also called He Ab K326_09D) heavy 1: not shown heavy 2: not shown light: DIVMTQSPLSLPVTPGEPASISCQASESLVHSNRNTYLHWYLQKPGQSPQLLIYKVSNRFSGVPDRFSGSGSGTDFTLKISRVEAEDVGVYYCSQNTHVPPTFGQGTKVEIERTVAAPSVFIFPPSDEQLKSGTASVVCLLNNFYPREAKVQWKVDNALQSGNSQESVTEQDSKDSTYSLSSTLTLSKADYEKHKVYACEVTHQGLSSPVTKSFNRGEC | 110 % of GpH7-A5/GpH7-B3/GpL16-k0 (=100)
3 | GpH7-A5/GpH7-B3 variant K334_03V/GpL16-k0 (antibody, human IgG1, kappa, also called He Ab K334_03V) heavy 1: not shown heavy 2: not shown light: DIVMTQSPLSLPVTPGEPASISCQASESLVHSNRNTYLHWYLQKPGQSPQLLIYKVSNRFSGVPDRFSGSGSGTDFTLKISRVEAEDVGVYYCSQNTHVPPTFGQGTKVEIERTVAAPSVFIFPPSDEQLKSGTASVVCLLNNFYPREAKVQWKVDNALQSGNSQESVTEQDSKDSTYSLSSTLTLSKADYEKHKVYACEVTHQGLSSPVTKSFNRGEC | 109 % of GpH7-A5/GpH7-B3/GpL16-k0 (=100)
4 | GpH7-A5/GpH7-B3 variant I332_10E/GpL16-k0 (antibody, human IgG1, kappa, also called He Ab I332_10E) heavy 1: not shown heavy 2: not shown light: DIVMTQSPLSLPVTPGEPASISCQASESLVHSNRNTYLHWYLQKPGQSPQLLIYKVSNRFSGVPDRFSGSGSGTDFTLKISRVEAEDVGVYYCSQNTHVPPTFGQGTKVEIERTVAAPSVFIFPPSDEQLKSGTASVVCLLNNFYPREAKVQWKVDNALQSGNSQESVTEQDSKDSTYSLSSTLTLSKADYEKHKVYACEVTHQGLSSPVTKSFNRGEC | 108 % of GpH7-A5/GpH7-B3/GpL16-k0 (=100)
5 | GpH7-A5/GpH7-B3 variant I332_18N/GpL16-k0 (antibody, human IgG1, kappa, also called He Ab I332_18N) heavy 1: not shown heavy 2: not shown light: DIVMTQSPLSLPVTPGEPASISCQASESLVHSNRNTYLHWYLQKPGQSPQLLIYKVSNRFSGVPDRFSGSGSGTDFTLKISRVEAEDVGVYYCSQNTHVPPTFGQGTKVEIERTVAAPSVFIFPPSDEQLKSGTASVVCLLNNFYPREAKVQWKVDNALQSGNSQESVTEQDSKDSTYSLSSTLTLSKADYEKHKVYACEVTHQGLSSPVTKSFNRGEC | 110 % of GpH7-A5/GpH7-B3/GpL16-k0 (=100)
6 | GpH7-A5/GpH7-B3 variant I332_14T/GpL16-k0 (antibody, human IgG1, kappa, also called He Ab I332_14T) heavy 1: not shown heavy 2: not shown light: DIVMTQSPLSLPVTPGEPASISCQASESLVHSNRNTYLHWYLQKPGQSPQLLIYKVSNRFSGVPDRFSGSGSGTDFTLKISRVEAEDVGVYYCSQNTHVPPTFGQGTKVEIERTVAAPSVFIFPPSDEQLKSGTASVVCLLNNFYPREAKVQWKVDNALQSGNSQESVTEQDSKDSTYSLSSTLTLSKADYEKHKVYACEVTHQGLSSPVTKSFNRGEC | 115 % of GpH7-A5/GpH7-B3/GpL16-k0 (=100)
7 | GpH7-A5/GpH7-B3 variant K326_14T/GpL16-k0 (antibody, human IgG1, kappa, also called He Ab K326_14T) heavy 1: not shown heavy 2: not shown light: DIVMTQSPLSLPVTPGEPASISCQASESLVHSNRNTYLHWYLQKPGQSPQLLIYKVSNRFSGVPDRFSGSGSGTDFTLKISRVEAEDVGVYYCSQNTHVPPTFGQGTKVEIERTVAAPSVFIFPPSDEQLKSGTASVVCLLNNFYPREAKVQWKVDNALQSGNSQESVTEQDSKDSTYSLSSTLTLSKADYEKHKVYACEVTHQGLSSPVTKSFNRGEC | 114 % of GpH7-A5/GpH7-B3/GpL16-k0 (=100)
8 | GpH7-A5/GpH7-B3 variant I336_06M/GpL16-k0 (antibody, human IgG1, kappa, also called He Ab I336_06M) heavy 1: not shown heavy 2: not shown light: DIVMTQSPLSLPVTPGEPASISCQASESLVHSNRNTYLHWYLQKPGQSPQLLIYKVSNRFSGVPDRFSGSGSGTDFTLKISRVEAEDVGVYYCSQNTHVPPTFGQGTKVEIERTVAAPSVFIFPPSDEQLKSGTASVVCLLNNFYPREAKVQWKVDNALQSGNSQESVTEQDSKDSTYSLSSTLTLSKADYEKHKVYACEVTHQGLSSPVTKSFNRGEC | 106 % of GpH7-A5/GpH7-B3/GpL16-k0 (=100)
9 | GpH7-A5/GpH7-B3 variant I336_08L/GpL16-k0 (antibody, human IgG1, kappa, also called He Ab I336_08L) heavy 1: not shown heavy 2: not shown light: DIVMTQSPLSLPVTPGEPASISCQASESLVHSNRNTYLHWYLQKPGQSPQLLIYKVSNRFSGVPDRFSGSGSGTDFTLKISRVEAEDVGVYYCSQNTHVPPTFGQGTKVEIERTVAAPSVFIFPPSDEQLKSGTASVVCLLNNFYPREAKVQWKVDNALQSGNSQESVTEQDSKDSTYSLSSTLTLSKADYEKHKVYACEVTHQGLSSPVTKSFNRGEC | 106 % of GpH7-A5/GpH7-B3/GpL16-k0 (=100)
10 | GpH7-A5/GpH7-B3 variant I332_04F/GpL16-k0 (antibody, human IgG1, kappa, also called He Ab I332_04F) heavy 1: not shown heavy 2: not shown light: DIVMTQSPLSLPVTPGEPASISCQASESLVHSNRNTYLHWYLQKPGQSPQLLIYKVSNRFSGVPDRFSGSGSGTDFTLKISRVEAEDVGVYYCSQNTHVPPTFGQGTKVEIERTVAAPSVFIFPPSDEQLKSGTASVVCLLNNFYPREAKVQWKVDNALQSGNSQESVTEQDSKDSTYSLSSTLTLSKADYEKHKVYACEVTHQGLSSPVTKSFNRGEC | 104 % of GpH7-A5/GpH7-B3/GpL16-k0 (=100)
11 | GpH7-A5/GpH7-B3 variant I332_06M/GpL16-k0 (antibody, human IgG1, kappa, also called He Ab I332_06M) heavy 1: not shown heavy 2: not shown light: DIVMTQSPLSLPVTPGEPASISCQASESLVHSNRNTYLHWYLQKPGQSPQLLIYKVSNRFSGVPDRFSGSGSGTDFTLKISRVEAEDVGVYYCSQNTHVPPTFGQGTKVEIERTVAAPSVFIFPPSDEQLKSGTASVVCLLNNFYPREAKVQWKVDNALQSGNSQESVTEQDSKDSTYSLSSTLTLSKADYEKHKVYACEVTHQGLSSPVTKSFNRGEC | 110 % of GpH7-A5/GpH7-B3/GpL16-k0 (=100)
